Sequences and labels used below:
B1: NRC3_wobSeed114_DR4_G10T_o1 (dsDNA)
DNA 1: GCAATACAGTGTCATCGTAGGCCAGAGTACGCACAGGCGATTGACAGCGTAGAATGAAGG
DNA 2: CCTTCATTCTACGCTGTCAATCGCCTGTGCGTACTCTGGCCTACGATGACACTGTATTGC
B2: NRC3_wobSeed100_DR4_A14C_o1 (dsDNA)
DNA 1: GCCCTACTGGGCCCCGAAAGGTCATTGATTCAGTGAGCGATTGACAGCGTAGAATGAAGG
DNA 2: CCTTCATTCTACGCTGTCAATCGCTCACTGAATCAATGACCTTTCGGGGCCCAGTAGGGC
B3: NRC3_wobSeed4_DR0_T22C_o1 (dsDNA)
DNA 1: GCCCTACTGGGCCAAGGTCATCGATCAGTCAAAGCAGCGATTGACAGCGTAGAATGAAGG
DNA 2: CCTTCATTCTACGCTGTCAATCGCTGCTTTGACTGATCGATGACCTTGGCCCAGTAGGGC
B4: NRC3_wobSeed46_DR1_A15T_o1 (dsDNA)
DNA 1: GCTTACCAAGGTGATAGGTCGTTGATGCACGCCTTGGCGATTGACAGCGTAGAATGAAGG
DNA 2: CCTTCATTCTACGCTGTCAATCGCCAAGGCGTGCATCAACGACCTATCACCTTGGTAAGC
B5: NRC3_wobSeed69_DR2_C6G_o1 (dsDNA)
DNA 1: GCAGTGAAAGTTCACTAGGTAACGTAAGATTCAGCTGCGATTGACAGCGTAGAATGAAGG
DNA 2: CCTTCATTCTACGCTGTCAATCGCAGCTGAATCTTACGTTACCTAGTGAACTTTCACTGC
B6: NRC3_wobSeed88_DR3_T25A_o1 (dsDNA)
DNA 1: GCTAGCCTAGGTCATGCGGGCCAGAATAGTGTCGGCGCGATTGACAGCGTAGAATGAAGG
DNA 2: CCTTCATTCTACGCTGTCAATCGCGCCGACACTATTCTGGCCCGCATGACCTAGGCTAGC
B7: NRC3_wobSeed88_DR3_A28G_o1 (dsDNA)
DNA 1: GCTAGCCTAGGTCATGCGGGCCAGTATGGTGTCGGCGCGATTGACAGCGTAGAATGAAGG
DNA 2: CCTTCATTCTACGCTGTCAATCGCGCCGACACCATACTGGCCCGCATGACCTAGGCTAGC
B8: NRC3_wobSeed61_DR2_G4C_o1 (dsDNA)
DNA 1: GCCCTCCAAGGTCAGCAGGTCAGTGAAAGCGACGTGGCGATTGACAGCGTAGAATGAAGG
DNA 2: CCTTCATTCTACGCTGTCAATCGCCACGTCGCTTTCACTGACCTGCTGACCTTGGAGGGC
B9: NRC3_wobSeed99_DR4_T5C_o1 (dsDNA)
DNA 1: GCTCCCGGAGGACACGAAAGGTCAGAGCTCGACATCGCGATTGACAGCGTAGAATGAAGG
DNA 2: CCTTCATTCTACGCTGTCAATCGCGATGTCGAGCTCTGACCTTTCGTGTCCTCCGGGAGC
B10: NRC3_wobSeed2_DR0_A22T_o1 (dsDNA)
DNA 1: GCCCTAGTTGGTCAAGGTCACTCACGCTATAGGTACGCGATTGACAGCGTAGAATGAAGG
DNA 2: CCTTCATTCTACGCTGTCAATCGCGTACCTATAGCGTGAGTGACCTTGACCAACTAGGGC
B11: NRC3_wobSeed81_DR3_C22G_o1 (dsDNA)
DNA 1: GCATCTCTAGGTAACCAAGTTGAGTGAATGCCGAACGCGATTGACAGCGTAGAATGAAGG
DNA 2: CCTTCATTCTACGCTGTCAATCGCGTTCGGCATTCACTCAACTTGGTTACCTAGAGATGC
B12: NRC3_wobSeed125_DR5_G21T_o1 (dsDNA)
DNA 1: GCCCTTACGGGTCACTGACATGTTATAGCATTTGGAGCGATTGACAGCGTAGAATGAAGG
DNA 2: CCTTCATTCTACGCTGTCAATCGCTCCAAATGCTATAACATGTCAGTGACCCGTAAGGGC
B13: NRC3_wobSeed125_DR5_T6C_o1 (dsDNA)
DNA 1: GCCCTCACGGGTCACTGACAGGTTATAGCATTTGGAGCGATTGACAGCGTAGAATGAAGG
DNA 2: CCTTCATTCTACGCTGTCAATCGCTCCAAATGCTATAACCTGTCAGTGACCCGTGAGGGC
B14: NRC3_wobSeed27_DR1_G7C_o1 (dsDNA)
DNA 1: GCACTCCGAGGACAAAGGTCAGAGCTACGCCAGTGAGCGATTGACAGCGTAGAATGAAGG
DNA 2: CCTTCATTCTACGCTGTCAATCGCTCACTGGCGTAGCTCTGACCTTTGTCCTCGGAGTGC
B15: NRC3_wobSeed5_DR0_C24G_o1 (dsDNA)
DNA 1: GCCCTTACGGGTCAAGGTTATAGGACGGGTGGTACGGCGATTGACAGCGTAGAATGAAGG
DNA 2: CCTTCATTCTACGCTGTCAATCGCCGTACCACCCGTCCTATAACCTTGACCCGTAAGGGC
B16: NRC3_wobSeed5_DR0_T6A_o1 (dsDNA)
DNA 1: GCCCTAACGGGTCAAGGTTATAGCACGGGTGGTACGGCGATTGACAGCGTAGAATGAAGG
DNA 2: CCTTCATTCTACGCTGTCAATCGCCGTACCACCCGTGCTATAACCTTGACCCGTTAGGGC
B17: NRC3_wobSeed133_DR5_G21T_o1 (dsDNA)
DNA 1: GCCGTCCAAGGTCAATGCTATGTCAGTGAAAGCATTGCGATTGACAGCGTAGAATGAAGG
DNA 2: CCTTCATTCTACGCTGTCAATCGCAATGCTTTCACTGACATAGCATTGACCTTGGACGGC
B18: NRC3_wobSeed21_DR0_T5A_o1 (dsDNA)
DNA 1: GCCGACAAAGTTCAAGGTAACGTAACAGAAAGCAGCGCGATTGACAGCGTAGAATGAAGG
DNA 2: CCTTCATTCTACGCTGTCAATCGCGCTGCTTTCTGTTACGTTACCTTGAACTTTGTCGGC
B19: NRC3_wobSeed82_DR3_T21G_o1 (dsDNA)
DNA 1: GCATCGAAAGGTCGACGAGGGGAGTATACACCGTTTGCGATTGACAGCGTAGAATGAAGG
DNA 2: CCTTCATTCTACGCTGTCAATCGCAAACGGTGTATACTCCCCTCGTCGACCTTTCGATGC
B20: NRC3_wobSeed86_DR3_T8G_o1 (dsDNA)
DNA 1: GCGCTGCGAGGTCAGGTTGGTCAGCTAACGGGTACGGCGATTGACAGCGTAGAATGAAGG
DNA 2: CCTTCATTCTACGCTGTCAATCGCCGTACCCGTTAGCTGACCAACCTGACCTCGCAGCGC
B21: NRC3_wobSeed137_DR5_A14T_o1 (dsDNA)
DNA 1: GCATATGTAGGTTTCATCCGGGTCATTCAGGCTATGGCGATTGACAGCGTAGAATGAAGG
DNA 2: CCTTCATTCTACGCTGTCAATCGCCATAGCCTGAATGACCCGGATGAAACCTACATATGC
B22: NRC3_wobSeed122_DR5_C28A_o1 (dsDNA)
DNA 1: GCGCTAGTTGGTCAGTAAAAGGTCACAAACCGGTCGGCGATTGACAGCGTAGAATGAAGG
DNA 2: CCTTCATTCTACGCTGTCAATCGCCGACCGGTTTGTGACCTTTTACTGACCAACTAGCGC
B23: NRC3_wobSeed90_DR3_A28C_o1 (dsDNA)
DNA 1: GCCATACAGGGTCAGCTAGGCCAGAGTCGGGACGGCGCGATTGACAGCGTAGAATGAAGG
DNA 2: CCTTCATTCTACGCTGTCAATCGCGCCGTCCCGACTCTGGCCTAGCTGACCCTGTATGGC
B24: NRC3_wobSeed74_DR3_A14C_o1 (dsDNA)
DNA 1: GCTCTAGTTGGTCCCGGAGGTCACACACGACGGGTAGCGATTGACAGCGTAGAATGAAGG
DNA 2: CCTTCATTCTACGCTGTCAATCGCTACCCGTCGTGTGTGACCTCCGGGACCAACTAGAGC
B25: NRC3_wobSeed74_DR3_G17T_o1 (dsDNA)
DNA 1: GCTCTAGTTGGTCACGTAGGTCACACACGACGGGTAGCGATTGACAGCGTAGAATGAAGG
DNA 2: CCTTCATTCTACGCTGTCAATCGCTACCCGTCGTGTGTGACCTACGTGACCAACTAGAGC
B26: NRC3_wobSeed142_DR5_A5G_o1 (dsDNA)
DNA 1: GCATGCCAAGGTGATCGTGAGGTCGTTGATACTAACGCGATTGACAGCGTAGAATGAAGG
DNA 2: CCTTCATTCTACGCTGTCAATCGCGTTAGTATCAACGACCTCACGATCACCTTGGCATGC
B27: NRC3_wobSeed98_DR4_T12C_o1 (dsDNA)
DNA 1: GCACTAGTTGGCCAGCTGAGGTCACACACAATTCGGGCGATTGACAGCGTAGAATGAAGG
DNA 2: CCTTCATTCTACGCTGTCAATCGCCCGAATTGTGTGTGACCTCAGCTGGCCAACTAGTGC
B28: NRC3_wobSeed6_DR0_T22A_o1 (dsDNA)
DNA 1: GCCCTAGCAGGCCAGGGTCACACAAGCATTTCGCTTGCGATTGACAGCGTAGAATGAAGG
DNA 2: CCTTCATTCTACGCTGTCAATCGCAAGCGAAATGCTTGTGTGACCCTGGCCTGCTAGGGC
B29: NRC3_wobSeed110_DR4_C7A_o1 (dsDNA)
DNA 1: GCTCTGATAGGTCAACGATGGTCAGCTAATCTGCTAGCGATTGACAGCGTAGAATGAAGG
DNA 2: CCTTCATTCTACGCTGTCAATCGCTAGCAGATTAGCTGACCATCGTTGACCTATCAGAGC
B30: NRC3_wobSeed119_DR4_G27A_o1 (dsDNA)
DNA 1: GCGGAACGAGGGCATTCGAGTTGATAACATGGCGATGCGATTGACAGCGTAGAATGAAGG
DNA 2: CCTTCATTCTACGCTGTCAATCGCATCGCCATGTTATCAACTCGAATGCCCTCGTTCCGC
B31: NRC3_wobSeed144_DR5_T19G_o1 (dsDNA)
DNA 1: GCTCGAGTAGGTTACCAAGGGGGCATTCAGCTTTCTGCGATTGACAGCGTAGAATGAAGG
DNA 2: CCTTCATTCTACGCTGTCAATCGCAGAAAGCTGAATGCCCCCTTGGTAACCTACTCGAGC

For this series, the target named is VDR:RXRa (Homo sapiens, UniProt P11473;P19793 full;full). The series is described as follows: no ligand; PBM; 270 nM : 90 nM RXRa; PBS pH 7.4, 2% milk, 0.02% Triton X-100, 1 mM DTT, BSA, 0.4 mg/ml salmon testes DNA. The settings on record: tags: His kept;His cleaved; copies: 1;1; label: surface-attached array probe. The method in brief: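 On custom Agilent 4×180K arrays, double-stranded probes with 34-nt variable regions carried direct-repeat seeds, single-nucleotide variants, half-site ablations or random human genomic background. Ligand-free nuclear receptor dimers were applied for 1 h, and binding was read with antibodies against each partner (one per run). Binding z-scores come from regression-normalized fluorescence, with the random background probes as reference.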
Chain of VDR:RXRa (P11473 whole entry, chain 1 of 2): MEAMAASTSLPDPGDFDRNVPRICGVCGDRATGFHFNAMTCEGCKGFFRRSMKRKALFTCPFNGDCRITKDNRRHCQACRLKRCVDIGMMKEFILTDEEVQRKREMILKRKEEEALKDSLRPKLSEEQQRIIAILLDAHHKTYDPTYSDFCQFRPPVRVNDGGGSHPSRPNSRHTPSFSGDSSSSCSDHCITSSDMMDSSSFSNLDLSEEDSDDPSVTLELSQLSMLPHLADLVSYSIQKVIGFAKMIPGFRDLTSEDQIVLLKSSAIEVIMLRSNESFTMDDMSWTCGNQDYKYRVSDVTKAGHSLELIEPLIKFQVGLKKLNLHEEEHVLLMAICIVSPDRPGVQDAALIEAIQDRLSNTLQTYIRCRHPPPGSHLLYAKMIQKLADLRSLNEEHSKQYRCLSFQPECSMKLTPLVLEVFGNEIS
Chain of VDR:RXRa (P19793 whole entry, chain 2 of 2): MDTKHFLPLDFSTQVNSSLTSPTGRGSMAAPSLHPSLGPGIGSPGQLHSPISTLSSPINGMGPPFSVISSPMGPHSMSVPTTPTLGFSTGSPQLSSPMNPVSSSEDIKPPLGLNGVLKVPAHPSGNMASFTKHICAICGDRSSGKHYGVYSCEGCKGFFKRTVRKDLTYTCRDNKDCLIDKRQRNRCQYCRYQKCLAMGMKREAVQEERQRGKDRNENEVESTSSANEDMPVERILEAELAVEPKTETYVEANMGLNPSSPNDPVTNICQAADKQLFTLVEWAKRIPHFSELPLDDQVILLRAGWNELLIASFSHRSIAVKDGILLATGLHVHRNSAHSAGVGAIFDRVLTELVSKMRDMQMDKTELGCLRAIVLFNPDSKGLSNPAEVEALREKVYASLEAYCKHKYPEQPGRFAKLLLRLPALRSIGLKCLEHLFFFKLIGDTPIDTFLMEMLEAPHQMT
Consider B1, for which the binding signal was 0.5 PBM z-score against 500 random probes.

As to B2, the binding signal is 3.44 PBM z-score against 500 random probes.

Regarding B3, the binding signal is 3.17 PBM z-score against 500 random probes.

Consider B4, for which the binding signal was 0.48 PBM z-score against 500 random probes.

Take B5: the binding signal was 3.33 PBM z-score against 500 random probes.

Regarding B6, the binding signal is 3.12 PBM z-score against 500 random probes.

Regarding B7, the binding signal was 3 PBM z-score against 500 random probes.

In the case of B8, the binding signal was 3.8 PBM z-score against 500 random probes.

B9: the binding signal is 3.26 PBM z-score against 500 random probes.

Turning to B10, the binding signal was 3.83 PBM z-score against 500 random probes.

B11: the binding signal was 0.49 PBM z-score against 500 random probes.

Take B12: the binding signal is 3.4 PBM z-score against 500 random probes.

As for B13, the binding signal is 3.38 PBM z-score against 500 random probes.

On to B14, for which the binding signal was 3.7 PBM z-score against 500 random probes.

On to B15, for which the binding signal is 3.5 PBM z-score against 500 random probes.

Regarding B16, the binding signal was 3.06 PBM z-score against 500 random probes.

As to B17, the binding signal is 3.76 PBM z-score against 500 random probes.

For B18, the binding signal is 3.74 PBM z-score against 500 random probes.

Regarding B19, the binding signal is 3.65 PBM z-score against 500 random probes.

B20: the binding signal is 3.78 PBM z-score against 500 random probes.

Take B21: the binding signal is 3.52 PBM z-score against 500 random probes.

B22: the binding signal is 3.68 PBM z-score against 500 random probes.

Consider B23, for which the binding signal was 3.58 PBM z-score against 500 random probes.

As to B24, the binding signal was 3.63 PBM z-score against 500 random probes.

In the case of B25, the binding signal was 3.15 PBM z-score against 500 random probes.

B26: the binding signal is 3.08 PBM z-score against 500 random probes.

Consider B27, for which the binding signal is 3.6 PBM z-score against 500 random probes.

As for B28, the binding signal is 3.03 PBM z-score against 500 random probes.

Regarding B29, the binding signal is 3.1 PBM z-score against 500 random probes.

For the molecule B30, the binding signal is 3.42 PBM z-score against 500 random probes.

B31: the binding signal is 3.47 PBM z-score against 500 random probes.

The record behind these values is paper PMC6555819, “Comprehensive study of nuclear receptor DNA binding provides a revised framework for understanding receptor specificity”.
